Tests used:
[1] = molecular target: the molecule itself; assay: SEC
[2] = molecular target: the molecule itself; assay: AUC

B1: α-mDelNT (N-terminal half of mouse α-Delphilin) (domain or fragment, UniProt Q0QWG9-2 1-558, looked up)
chain: MSCLGIFIPKKHRARFDEVVSQGLLGKLCRARRAQGAQRLRRSRSEERPERLLVSTRASAAPRRPDEPPPRKATSLLGGRTGPGGPRRTVRVYKGNKSFGFTLRGHGPVWIESVLPGSPAENASLKSGDRILFLNGLDMRNCSHDKVVSMLQGSGAMPTLVVEEGPVPFASDSDSLDSPTRASALTSLQWVADILPSSIRVQGRTFSQQLDHLLTPPERYGVCRALERFFQHRNIDTLIVDVYPVLDTPAKQVLWQFLYQLLTYEEQELCQEKIACFLGYTAMTEPESSLDLEPESTPEPTPEPQPRSSLRASSMCRRSLRSQGLETSLSCGPGDCPEMPLPLIPGERQAGDGTSLPETPNPKMMSAVYAELESRLNSSFKGKIGTMSKSRASPPVPSLVGTSGPRTLSGVSWPSDRLLPSPCYDPLCSGGLASPSSSESHPYASLDSSRAPSPQPGLGSIHADSPPSPDPIRPPSRRKLFAFSRPVRSRDTDRFLDALSEQLGPRLSIVDDFLTPENDYEEMSFHDDQGSFVTNERSSASECVSSSEEGSSLTYSSI
[1]
  stoichiometry N: 7 subunits
[2]
  stoichiometry N: 6 subunits

Source: doi:10.1101/151191 (bioRxiv, 2017)
